Results reported in PMC7144902, “Absence of MeCP2 binding to non-methylated GT-rich sequences in vivo”.

Tests used:
Details in all cases: protein: recombinant; tags: C-terminal His; label: 32P; blunt
MeCP2[1-205] [1] = target: T1, MeCP2[1-205] (Homo sapiens, UniProt P51608 1-205); test: EMSA; stronger than mCAC and GGTGT; EMSA: 10 mM Tris-HCl pH 7.5, 150 mM KCl (250 mM for MeCP2[1-486]), 0.1 mg/ml BSA, 5% glycerol, 0.1 mM EDTA, 1 ug poly(dA-dT), 1 ng probe, 20 ul, 30 min on ice
MeCP2[1-486] = MeCP2[1-486] (Homo sapiens, UniProt P51608 1-486); test: EMSA; 250 mM KCl; preferred over CG; EMSA: 10 mM Tris-HCl pH 7.5, 150 mM KCl (250 mM for MeCP2[1-486]), 0.1 mg/ml BSA, 5% glycerol, 0.1 mM EDTA, 1 ug poly(dA-dT), 1 ng probe, 20 ul, 30 min on ice
MeCP2[77-167] = MeCP2[77-167] (Homo sapiens, UniProt P51608 77-167); test: EMSA; EMSA: 10 mM Tris-HCl pH 7.5, 150 mM KCl (250 mM for MeCP2[1-486]), 0.1 mg/ml BSA, 5% glycerol, 0.1 mM EDTA, 1 ug poly(dA-dT), 1 ng probe, 20 ul, 30 min on ice
MeCP2[1-205] [2] = target: T1, MeCP2[1-205]; test: as above
MeCP2[1-205] [3] = target: T1, MeCP2[1-205]; test: EMSA; background only; EMSA: 10 mM Tris-HCl pH 7.5, 150 mM KCl (250 mM for MeCP2[1-486]), 0.1 mg/ml BSA, 5% glycerol, 0.1 mM EDTA, 1 ug poly(dA-dT), 1 ng probe, 20 ul, 30 min on ice
MeCP2[1-205] [4] = target: T1, MeCP2[1-205]; test: EMSA; similar to GGTGT and mCAC; EMSA: 10 mM Tris-HCl pH 7.5, 150 mM KCl (250 mM for MeCP2[1-486]), 0.1 mg/ml BSA, 5% glycerol, 0.1 mM EDTA, 1 ug poly(dA-dT), 1 ng probe, 20 ul, 30 min on ice
MeCP2[1-205] [5] = target: T1, MeCP2[1-205]; test: EMSA; no significant binding; EMSA: 10 mM Tris-HCl pH 7.5, 150 mM KCl (250 mM for MeCP2[1-486]), 0.1 mg/ml BSA, 5% glycerol, 0.1 mM EDTA, 1 ug poly(dA-dT), 1 ng probe, 20 ul, 30 min on ice
MeCP2[1-205] [6] = target: T1, MeCP2[1-205]; test: EMSA; comparable to mCAC, lower than mCG; EMSA: 10 mM Tris-HCl pH 7.5, 150 mM KCl (250 mM for MeCP2[1-486]), 0.1 mg/ml BSA, 5% glycerol, 0.1 mM EDTA, 1 ug poly(dA-dT), 1 ng probe, 20 ul, 30 min on ice
MeCP2[1-205] [7] = target: T1, MeCP2[1-205]; test: EMSA; only marginal effect; EMSA: 10 mM Tris-HCl pH 7.5, 150 mM KCl (250 mM for MeCP2[1-486]), 0.1 mg/ml BSA, 5% glycerol, 0.1 mM EDTA, 1 ug poly(dA-dT), 1 ng probe, 20 ul, 30 min on ice

B1: mCG (dsDNA)
DNA 1: AAGCATGCAATGCCCTGGAACGGAATTCTTCTAATAAAAGATGTATCATTTTAAATGC
DNA 2: GCATTTAAAATGATACATCTTTTATTAGAAGAATTCCGTTCCAGGGCATTGCATGCTT
modifications: 5mC at strand 1 position 21; reverse strand the appropriate methylated oligo (position not given)
- binding result (MeCP2[1-205] [1]): binds
- binding result (MeCP2[1-486]): binds

B2: mCAC (dsDNA)
DNA 1: AAGCATGCAATGCCCTGGAACACAATTCTTCTAATAAAAGATGTATCATTTTAAATGC
DNA 2: GCATTTAAAATGATACATCTTTTATTAGAAGAATTGTGTTCCAGGGCATTGCATGCTT
modifications: 5mC at strand 1 position 21
- binding result (MeCP2[77-167]): binds
- binding result (MeCP2[1-205] [2]): binds

B3: CAC (dsDNA)
DNA 1: AAGCATGCAATGCCCTGGAACACAATTCTTCTAATAAAAGATGTATCATTTTAAATGC
DNA 2: GCATTTAAAATGATACATCTTTTATTAGAAGAATTGTGTTCCAGGGCATTGCATGCTT
- binding result (MeCP2[1-205] [3]): no binding

B4: GT4 (dsDNA)
DNA 1: AAGCATGCAATGCCCTGGAAGTGTGTGTAATTCTTCTAATAAAAGATGTATCATTTTAAATGC
DNA 2: GCATTTAAAATGATACATCTTTTATTAGAAGAATTACACACACTTCCAGGGCATTGCATGCTT
- binding result (MeCP2[1-205] [4]): binds

B5: GT1 (dsDNA)
DNA 1: AAGCATGCAATGCCCTGGAAGTAATTCTTCTAATAAAAGATGTATCATTTTAAATGC
DNA 2: GCATTTAAAATGATACATCTTTTATTAGAAGAATTACTTCCAGGGCATTGCATGCTT
- binding result (MeCP2[1-205] [5]): no binding

B6: GT2 (dsDNA)
DNA 1: AAGCATGCAATGCCCTGGAAGTGTAATTCTTCTAATAAAAGATGTATCATTTTAAATGC
DNA 2: GCATTTAAAATGATACATCTTTTATTAGAAGAATTACACTTCCAGGGCATTGCATGCTT
- binding result (MeCP2[1-205] [4]): binds

B7: GT3 (dsDNA)
DNA 1: AAGCATGCAATGCCCTGGAAGTGTGTAATTCTTCTAATAAAAGATGTATCATTTTAAATGC
DNA 2: GCATTTAAAATGATACATCTTTTATTAGAAGAATTACACACTTCCAGGGCATTGCATGCTT
- binding result (MeCP2[1-205] [4]): binds

B8: GGTGT (dsDNA)
DNA 1: AAGCATGCAATGCCCTGGAAGGTGTAATTCTTCTAATAAAAGATGTATCATTTTAAATGC
DNA 2: GCATTTAAAATGATACATCTTTTATTAGAAGAATTACACCTTCCAGGGCATTGCATGCTT
- binding result (MeCP2[1-205] [6]): binds

B9: GGTGU (dsDNA)
DNA 1: AAGCATGCAATGCCCTGGAAGGTGUAATTCTTCTAATAAAAGATGTATCATTTTAAATGC
DNA 2: GCATTTAAAATGATACATCTTTTATTAGAAGAATTACACCTTCCAGGGCATTGCATGCTT
modifications: 3' motif T replaced by deoxyuridine
- binding result (MeCP2[1-205] [7]): binds

B10: GT5 (dsDNA)
DNA 1: AAGCATGCAATGCCCTGGAAGTGTGTGTGTAATTCTTCTAATAAAAGATGTATCATTTTAAATGC
DNA 2: GCATTTAAAATGATACATCTTTTATTAGAAGAATTACACACACACTTCCAGGGCATTGCATGCTT
- binding result (MeCP2[1-205] [4]): binds
